Measured values taken from patent US20260201002A1, “KERATIN CF1, PREPARATION METHOD THEREFOR, PHARMACEUTICAL COMPOSITION COMPRISING SAME, AND USE THEREOF” (INSTITUTE OF MATERIA MEDICA ,CHINESE ACADEMY OF MEDICAL …, priority 2023, published 2026).
Where a name gives a salt, the structure may show the parent alone.

Columns and labels:
[1] = test system: yeast-induced fever model in rats; assay: Yeast-induced SD rat fever model; assay type: in vivo, SD rats; details: for Basal body temperature: rectal temperature before modeling, N=8; for Body temperature 2 hours after modeling / Body temperature 6 hours after modeling / Body temperature 8 hours after modeling / Body temperature 4 hours after modeling: then 20% yeast suspension 10 ml/kg s.c.; for Body temperature 2 hours after modeling: model group 37.5 ± 0.1; for Body temperature 6 hours after modeling / Body temperature 8 hours after modeling: model group 37.6 ± 0.1; for Body temperature 4 hours after modeling: model group 37.7 ± 0.1; for Effect on body temperature of model rats (in words): P<0.05 vs model group
Description: • Animals: male SD rats, weight 230-260 grams; • Medicines: yeast (OXOID LP0021), Aspirin (SIGMA A2093), protein CF1; • Instruments: electronic balance (SARTORIUS BP121S), electronic clinical thermometer • (CITIZEN CT-513W). • Experiment grouping: • Normal control group; • Model group: yeast-induced fever model; • Positive control group: Aspirin 300 mg/kg group; • Protein CF1, 10 mg/kg group, 50 mg/kg group.
Preparation of experimental animals: After the experimental animals were adapted to the experimental environment (temperature 22° C.±2° C., relative humidity 50%±2%) for 1 day, the rectal temperature was measured for pre-adaptation at 8:00 in the morning and 15:00 respectively. The animals were fasted for 12 hours before the experiment with water provided ad libitum, and their bowels were emptied before the rectal temperature was measured. Before each temperature measurement, the probe of the electronic thermometer was applied with Vaseline and inserted 2 cm into the rat's rectum (a marker was made at 2 cm to ensure consistent insertion depth each time). The body temperature was recorded after readings stabilized.
(§1) Subcutaneous injection of dry yeast to replicate the rat fever model: Before model establishment, the body temperature of rats was measured. Qualified rats with body temperatures of 36.2-37.3° C. were selected and randomly grouped, with 8 rats per group. After oral administration of aspirin and different doses of protein CF1, 20% yeast suspension (10 ml/kg) was immediately subcutaneously injected. The normal control group was subcutaneously injected with the same volume of normal saline. The body temperatures of rats were monitored 2 hours later, once every 2 hours, for a total of 8 hours.
(§2) Based on the body temperature values measured at each time point on the day of the experiment, the mean, standard deviation and standard error of body temperature of rats in each group were calculated. The TTEST test was applied to compare the data of each group between groups, and P<0.05 was considered as a significant difference.

[2] = test system: lipopolysaccharide (LPS) induced fever in rats; assay: Lipopolysaccharide (LPS)-induced SD rat fever model; assay type: in vivo, SD rats; details: for Body temperature 2 hours after modeling / Body temperature 4 hours after modeling / Body temperature 6 hours after modeling / Body temperature 8 hours after modeling: then LPS 20 μg/kg i.p.; for Body temperature 2 hours after modeling / Body temperature 4 hours after modeling: model group 37.7 ± 0.1; for Body temperature 6 hours after modeling: model group 37.8 ± 0.2; for Body temperature 8 hours after modeling: model group 37.9 ± 0.2; for Effect on body temperature of model rats (in words): P<0.05 vs model group
Description: • Animals: Male SD rats, weight: 230-260 grams; • Drugs: lipopolysaccharide (LPS, SIGMA L-2880), aspirin (SIGMA A2093), protein CF1; • Instruments: electronic balance (SARTORIUS BP121S), electronic clinical thermometer (CITIZEN CT-513W). • Experiment grouping: • Normal control group; • Model group: lipopolysaccharide fever model group; • Positive control group: Aspirin 300 mg/kg group; • Protein CF1, 10 mg/kg group, 50 mg/kg group. • Method: the method for replicating the rat fever model via intraperitoneal injection of lipopolysaccharide. • Preparation of experimental animals: After the experimental animals were adapted to the experimental environment (temperature 22° C.±2° C., relative humidity 50%±2%) for 1 day, the rectal temperature was measured for pre-adaptation at 8:00 in the morning and 15:00 respectively. The animals were fasted for 12 hours before the experiment with water provided ad libitum, and their bowels were emptied before the rectal temperature was measured. Before each temperature measurement, the probe of the electronic thermometer was applied with Vaseline and inserted 2 cm into the rat's rectum (a marker was made at 2 cm to ensure consistent insertion depth each time). The body temperature was recorded after readings stabilized.
as §1, with “Intraperitoneal Injection” for “Subcutaneous injection”, “Lipopolysaccharide” for “dry yeast”, “lipopolysaccharide (20 μg/kg, 2” for “20% yeast suspension (10”, “intraperitoneally” for “subcutaneously”, “later and” for “later, once every 2 hours,”
as §2

[3] = test system: ammonia water-induced cough in mice; assay: Antitussive effect on ammonia water-induced cough in mice; assay type: in vivo, ICR mice; details: for Latency period: 1 hour before 10% ammonia water 10 seconds, solvent control 30.0 ± 1.8; for Latency period / Cough frequency: X ± SEM; for Cough frequency: within 2 minutes, 1 hour before 10% ammonia water, solvent control 65.5 ± 3.8
Description: • Animals: male ICR mice; • Drug and reagents: dextromethorphan hydrobromide, ammonia, 0.2% CMC-Na, protein CF1; • Instruments: Compressed nebulizer (403T), balance (XS105DU). • Experiment grouping: • Solvent control group; • Dextromethorphan 15 mg/kg group; • Protein CF1, 20 mg/kg group, 50 mg/kg group.
Model establishment and drug administration: Mice were orally administered dextromethorphan or varying doses of protein CF1 (administration volume: 10 ml/kg). The solvent control group were administered an equal volume of distilled water. After 1 hour, mice were placed in a sealed chamber and atomized with 10% ammonia water for 10 seconds. The cough latency period and cough frequency within 2 minutes were then observed and recorded.
Data processing: The oral administration time point, the nebulization exposure time point, the cough latency period, and the cough frequency within 2 minutes were recorded respectively. The cough latency period refers to the time interval of seconds required from the start of ammonia nebulization to the occurrence of coughing. The manifestation of coughing in mice is characterized by the contraction of their abdominal muscles (chest retraction) and the opening of their mouths wide. The mean and standard error of data in each group were calculated. The TTEST test was applied to compare the model group with the other groups. P<0.05 was considered as a significant difference.

[4] = aspirin 300 mg/kg oral, 2, 4, 6 and 8 hours after modeling

## CC(=O)Oc1ccccc1C(=O)O [Aspirin, aspirin, reference compound]
[1]; aspirin 300 mg/kg oral group
  Basal body temperature: 36.9 ± 0.1 °C
[1]; aspirin 300 mg/kg oral
  Body temperature 2 hours after modeling: 36.9 ± 0.1 °C
  Body temperature 6 hours after modeling: 37.2 ± 0.1 °C
  Body temperature 8 hours after modeling: 37.1 ± 0.1 °C
  Body temperature 4 hours after modeling: 37.1 ± 0.2 °C
[1]; [4]
  Effect on body temperature of model rats (in words): can effectively inhibit the increase of body temperature
[2]; aspirin 300 mg/kg oral
  Body temperature 2 hours after modeling: 37.0 ± 0.2 °C
  Body temperature 4 hours after modeling: 37.0 ± 0.2 °C
  Body temperature 6 hours after modeling: 37.3 ± 0.1 °C
  Body temperature 8 hours after modeling: 37.2 ± 0.1 °C
[2]; [4]
  Effect on body temperature of model rats (in words): can effectively inhibit the increase of body temperature

## COc1ccc2c(c1)[C@]13CCCC[C@@H]1[C@H](C2)N(C)CC3 [Dextromethorphan, dextromethorphan hydrobromide, reference compound]
[3]; dextromethorphan 15 mg/kg oral
  Latency period: 45.4 ± 2.1 s
  Cough frequency: 36.8 ± 2.8
[3]; dextromethorphan 15 mg/kg oral, vs solvent control group, P<0.05
  Effect on latency period and cough frequency (in words): significant improvements in terms of latency period and cough frequency

B1: CF1: keratin with the amino acid sequence of SEQ ID NO. 1, expressed in E. coli; tested batch is the protein in Example 7 (protein)
chain: MSCRSYRVSSGHRVGNFSSCSAGIPRNLNRFRASSVSCRSGPSFRGIGGFGSRSVITFGSCSPRIAAVGPRPIRCGVGFGAGSGMAFGFGDGIGAGLGFGSGSYLGYGFGGPGFGYRVGGIGVPAAPSITPVTVNQSLLTPLNLEIDPNAQRVKRDEKEQIKTLNNRFASFIDKVRFLEQQNKLLETKWSFLQEQKGARSNLEPLFENYITNLQRQLDIANSERARFEAERNQLQDVLEGFKKKYEEEVVFRANAENEFVALKKDVDAAFLNKAELEANVDTLTQEIDFLKTLYAAEIQLLQSHISETSVIVKMDNSRDLDLDGIIAEVRAQYEEVAKRSRADAEAWYQTKYEEMRVTAGQHCDNLRNTREEINELTRLIQRLKAEIEHAKAQRARLEAAVAEAEQQGEAALNDAKCKLADLEAALQQAKQDMARQLREYQELMNAKLGLDIEIATYRRLLEGEEIRICEGVGPVNISVSSSRGGVVCGPESLVTSSTLSRSGVTFSGSSSIRPSGACGSSLGGVVVAGGDLLSAGSRGGSVLVGEACVPSVPCPLPTEGFSSCSGGRSSSLRFVSTTTSRRTKY
[1]; 8 hours post-modeling, dose not stated
  Effect on body temperature of model animals (summary, in words): significant effect in reducing the elevated body temperature
[1]; CF1 10 mg/kg oral group
  Basal body temperature: 36.9 ± 0.1 °C
[1]; CF1 10 mg/kg oral
  Body temperature 2 hours after modeling: 37.0 ± 0.1 °C
  Body temperature 6 hours after modeling: 37.4 ± 0.1 °C
  Body temperature 8 hours after modeling: 37.2 ± 0.05 °C
  Body temperature 4 hours after modeling: 37.3 ± 0.1 °C
[1]; CF1 10 mg/kg oral, 2 hours and 8 hours post-modeling
  Effect on body temperature of model rats (in words): can significantly inhibit the temperature elevation
[1]; CF1 50 mg/kg oral group
  Basal body temperature: 36.8 ± 0.1 °C
[1]; CF1 50 mg/kg oral
  Body temperature 2 hours after modeling: 36.8 ± 0.1 °C
  Body temperature 6 hours after modeling: 37.4 ± 0.1 °C
  Body temperature 8 hours after modeling: 37.4 ± 0.1 °C
  Body temperature 4 hours after modeling: 37.2 ± 0.1 °C
[3]; CF1 20 mg/kg oral
  Latency period: 34.6 ± 3.1 s
  Cough frequency: 50.1 ± 2.8
[3]; CF1 20 mg/kg oral, vs solvent control group
  Effect on cough frequency (in words): statistically significant difference in term of cough frequency, but the effect is weak
[3]; CF1 50 mg/kg oral
  Latency period: 35.1 ± 4.6 s
  Cough frequency: 56.4 ± 4.2
[3]; dose not stated
  Antitussive effect (summary, in words): can reduce the cough frequency
[2]; 2 hours post-modeling, dose not stated
  Effect on body temperature of model rats (summary, in words): significant effect in reducing the body temperature
[2]; CF1 10 mg/kg oral
  Body temperature 2 hours after modeling: 37.3 ± 0.1 °C
  Body temperature 4 hours after modeling: 37.7 ± 0.2 °C
  Body temperature 6 hours after modeling: 37.7 ± 0.2 °C
  Body temperature 8 hours after modeling: 37.9 ± 0.1 °C
[2]; CF1 10 mg/kg oral, 2 hours after modeling
  Effect on body temperature of model rats (in words): can significantly reduce the body temperature
[2]; CF1 50 mg/kg oral group, rectal temperature before modeling, N=8
  Basal body temperature: 36.8 ± 0.05 °C
[2]; CF1 50 mg/kg oral
  Body temperature 2 hours after modeling: 37.3 ± 0.2 °C
  Body temperature 4 hours after modeling: 37.6 ± 0.2 °C
  Body temperature 6 hours after modeling: 37.9 ± 0.2 °C
  Body temperature 8 hours after modeling: 37.9 ± 0.1 °C
